Results as given in patent US20160017024A1 (Five Prime, published 2016).
Values belong to the binder of their own block, whether it stands above or below them.

Assays:
[1] = molecular target: full length human LTK with an HA tag at the C-terminus, expressed on transfected cells (human, UniProt P29376 17-864); assay: cell-based or functional assay
[2] = molecular target: T1, Mouse LTK ECD-Fc (mouse); assay: SPR (Biacore T100), ECD-Fc captured on Protein A CM4 chip
T1 construct: also called mouse LTK ECD-Fc (human Fc)
T1 sequence (chain, as listed by the source limits assumed): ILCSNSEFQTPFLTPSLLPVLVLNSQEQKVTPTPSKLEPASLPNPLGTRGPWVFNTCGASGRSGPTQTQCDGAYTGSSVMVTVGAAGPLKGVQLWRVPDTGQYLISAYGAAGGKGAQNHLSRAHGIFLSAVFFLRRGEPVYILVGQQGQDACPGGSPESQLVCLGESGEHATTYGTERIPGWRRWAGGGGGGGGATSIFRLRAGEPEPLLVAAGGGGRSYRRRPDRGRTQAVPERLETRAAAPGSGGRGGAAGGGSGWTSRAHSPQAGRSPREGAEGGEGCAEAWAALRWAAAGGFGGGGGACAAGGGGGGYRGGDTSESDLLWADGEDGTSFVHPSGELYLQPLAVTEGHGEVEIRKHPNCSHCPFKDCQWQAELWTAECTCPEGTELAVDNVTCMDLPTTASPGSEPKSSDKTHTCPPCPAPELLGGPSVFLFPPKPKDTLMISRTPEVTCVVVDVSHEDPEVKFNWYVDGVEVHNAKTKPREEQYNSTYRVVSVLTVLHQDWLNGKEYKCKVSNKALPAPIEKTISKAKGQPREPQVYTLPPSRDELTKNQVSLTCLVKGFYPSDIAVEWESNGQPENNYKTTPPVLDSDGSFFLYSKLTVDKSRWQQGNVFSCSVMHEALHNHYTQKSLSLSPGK
Procedure: The kₐ, kd, and KD for binding of human FAM150A to human LTK ECD-Fc (SEQ ID NO: 23) and mouse LTK ECD-Fc (SEQ ID NO: 25) was determined as follows. Binding kinetics of FAM150A to human and mouse LTK ECD-Fc fusion proteins was determined using Biacore T100 SPR (GE Healthcare Life Sciences, Piscataway, N.J.). LTK ECD-Fc fusions were captured on a CM4 sensor chip immobilized with Protein A (Thermo Scientific, Rockford, Ill.). HBS-P (GE Healthcare Life Sciences, Piscataway, N.J.) was used as the running and dilution buffer. Capture levels of the ECD-Fc fusions were adjusted to approximately 300-500RU so that binding values would be greater than the levels of non-specific binding to the reference flow cell. FAM150A was injected at […] (100 nM, 33.3 nM, 11.1 nM, 3.7 nM, 1.2 nM, 0.41 nM, 0.13 nM, 0.046 nM and 0 nM) for 120 seconds. The association constant, dissociation constant, and affinity of FAM150A for LTK Fc-ECD fusions was calculated using the Biacore T100 Evaluation software package using the 1:1 binding model.

full length human LTK with an HA tag at the C-terminus, expressed on transfected cells, sequence (P29376 17-864): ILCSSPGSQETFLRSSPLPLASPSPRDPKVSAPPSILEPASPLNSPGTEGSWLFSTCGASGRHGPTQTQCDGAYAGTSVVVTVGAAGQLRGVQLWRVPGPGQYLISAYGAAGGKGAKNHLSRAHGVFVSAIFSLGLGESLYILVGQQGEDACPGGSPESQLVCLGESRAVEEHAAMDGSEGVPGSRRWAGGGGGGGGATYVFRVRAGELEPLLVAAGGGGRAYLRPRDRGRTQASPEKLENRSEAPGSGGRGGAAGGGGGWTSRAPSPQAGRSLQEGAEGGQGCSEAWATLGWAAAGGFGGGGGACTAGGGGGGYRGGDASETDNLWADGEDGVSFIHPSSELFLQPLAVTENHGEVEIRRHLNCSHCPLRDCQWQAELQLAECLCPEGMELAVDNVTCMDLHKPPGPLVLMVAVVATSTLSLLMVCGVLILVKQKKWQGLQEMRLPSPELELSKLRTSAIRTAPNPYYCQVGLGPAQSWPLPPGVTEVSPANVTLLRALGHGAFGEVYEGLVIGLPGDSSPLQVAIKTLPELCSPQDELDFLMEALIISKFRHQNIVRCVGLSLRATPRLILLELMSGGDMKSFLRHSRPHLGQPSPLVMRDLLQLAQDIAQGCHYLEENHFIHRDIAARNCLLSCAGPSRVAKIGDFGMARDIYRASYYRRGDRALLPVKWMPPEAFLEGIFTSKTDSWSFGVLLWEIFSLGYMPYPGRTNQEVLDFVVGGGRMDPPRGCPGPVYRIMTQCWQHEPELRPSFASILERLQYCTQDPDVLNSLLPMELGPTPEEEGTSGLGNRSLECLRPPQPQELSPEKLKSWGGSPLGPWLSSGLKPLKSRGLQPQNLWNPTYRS

induction of LTK phosphorylation relative to an unrelated control protein [1]: > 2 fold
B1: Human FAM150B (ligand)
chain: GAEPREPADGQALLRLVVELVQELRKHHSAEHKGLQLLGRDCALGRAEAAGLGPSPEQRVEIVPRDLRMKDKFLKHLTGPLYFSPKCSKHFHRLYHNTRDCTIPAYYKRCARLLTRLAVSPVCMEDKQ

EC50 for FAM150A-induced LTK phosphorylation [1]: 1.96 nM
induction of LTK phosphorylation relative to an unrelated control protein [1]: > 20 fold
fold lower affinity than to human LTK ECD-Fc [2]: ~30 fold
B2: Human FAM150A (ligand)
chain: RPRGRRGARVTDKEPKPLLFLPAAGAGRTPSGSRSAEIFPRDSNLKDKFIKHFTGPVTFSPECSKHFHRLYYNTRECSTPAYYKRCARLLTRLAVSPLCSQT
notes: Expressed in HEK 293 6E cells (or HEK293T supernatant) and secreted
